Consider two substances from patent US5726050.

The series deals with double-stranded RNA adenosine deaminase (dsrad, 140 kDa Z-DNA binding protein) (Gallus gallus) (UniProt A0A8V1AB28). The series is described as follows: competition. Particulars: bandshift competition.
Chain of UniProt A0A8V1AB28 (A0A8V1AB28 entry or part of it): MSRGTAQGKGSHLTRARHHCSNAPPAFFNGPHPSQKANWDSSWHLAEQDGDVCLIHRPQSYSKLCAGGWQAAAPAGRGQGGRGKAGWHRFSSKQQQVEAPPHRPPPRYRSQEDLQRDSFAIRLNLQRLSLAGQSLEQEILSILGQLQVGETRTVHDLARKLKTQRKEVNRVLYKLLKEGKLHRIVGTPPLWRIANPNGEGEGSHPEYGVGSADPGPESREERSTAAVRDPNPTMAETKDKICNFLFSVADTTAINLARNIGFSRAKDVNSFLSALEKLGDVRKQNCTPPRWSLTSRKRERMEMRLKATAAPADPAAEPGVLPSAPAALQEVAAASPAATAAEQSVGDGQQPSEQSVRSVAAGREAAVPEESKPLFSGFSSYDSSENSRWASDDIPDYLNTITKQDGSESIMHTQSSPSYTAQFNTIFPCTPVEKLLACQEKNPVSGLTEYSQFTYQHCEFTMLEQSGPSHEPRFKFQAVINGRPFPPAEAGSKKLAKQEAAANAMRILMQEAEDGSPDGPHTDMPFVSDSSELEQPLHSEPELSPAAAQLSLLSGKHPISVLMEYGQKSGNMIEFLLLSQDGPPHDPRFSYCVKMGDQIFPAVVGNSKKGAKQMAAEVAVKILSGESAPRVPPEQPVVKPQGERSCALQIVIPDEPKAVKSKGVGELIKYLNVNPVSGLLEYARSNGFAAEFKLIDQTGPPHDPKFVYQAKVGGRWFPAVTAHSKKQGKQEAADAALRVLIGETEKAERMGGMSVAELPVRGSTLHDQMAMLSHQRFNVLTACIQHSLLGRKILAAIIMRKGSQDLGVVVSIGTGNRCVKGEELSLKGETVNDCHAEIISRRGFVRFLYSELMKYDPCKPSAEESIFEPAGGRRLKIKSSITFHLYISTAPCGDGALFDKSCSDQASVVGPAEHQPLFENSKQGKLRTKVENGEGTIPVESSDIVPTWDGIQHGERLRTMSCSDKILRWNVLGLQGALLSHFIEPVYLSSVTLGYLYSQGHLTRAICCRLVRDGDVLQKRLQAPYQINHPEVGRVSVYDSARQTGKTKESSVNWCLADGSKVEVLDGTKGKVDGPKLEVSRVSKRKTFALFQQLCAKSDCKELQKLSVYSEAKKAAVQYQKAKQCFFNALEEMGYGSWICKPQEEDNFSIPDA

Turning to pDHg16 relaxed by topoisomerase I, the binding signal (fold weaker than supercoiled) (relaxed with calf thymus topoisomerase I) worked out at 100.

Consider “pDHg16 supercoiled plasmid with d(CG)13 insert”, for which, for the setting “reference, bacterial superhelical density”, the binding signal came to 1 fold.
